Assay results as given in patent US20050095674A1, “Cannabinoid receptor interacting proteins and methods of use” (priority 2003, published 2005).

Legend:
[1] = target: rat CB1 cannabinoid receptor, wild type (rat) (UniProt P20272); test: cell-based or functional assay
[2] = target: T1, CB1 receptors (Rattus norvegicus, UniProt P20272); test: Whole-cell patch clamp of Ca2+ currents in SCG neurons microinjected with rCB1 and rat CRIP1a; format: cell-based
T1 construct: expressed in transfected cells
T1 sequence (P20272 whole entry): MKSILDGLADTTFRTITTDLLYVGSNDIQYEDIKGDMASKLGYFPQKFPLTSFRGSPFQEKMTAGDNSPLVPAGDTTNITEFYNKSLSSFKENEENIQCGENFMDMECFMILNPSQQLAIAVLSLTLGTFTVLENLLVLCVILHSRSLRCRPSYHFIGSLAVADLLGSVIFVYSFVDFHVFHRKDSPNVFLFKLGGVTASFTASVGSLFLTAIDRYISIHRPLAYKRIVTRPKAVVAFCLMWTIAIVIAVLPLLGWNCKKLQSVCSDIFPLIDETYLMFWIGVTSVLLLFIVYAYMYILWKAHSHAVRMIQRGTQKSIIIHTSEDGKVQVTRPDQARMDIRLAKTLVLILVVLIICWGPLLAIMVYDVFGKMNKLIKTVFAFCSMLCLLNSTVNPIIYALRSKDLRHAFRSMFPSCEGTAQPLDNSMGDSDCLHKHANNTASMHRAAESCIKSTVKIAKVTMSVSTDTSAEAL

[3] = target: T2, CB1-464 truncated receptor (Rattus norvegicus, UniProt P20272); test: Whole-cell patch clamp of Ca2+ currents in SCG neurons expressing the CB1-464 truncated receptor; format: cell-based; settings: coexpression of CRIP1a with CB1-464 truncated receptor
T2 construct: expressed in transfected cells
T2 sequence (P20272 1-464 limits assumed): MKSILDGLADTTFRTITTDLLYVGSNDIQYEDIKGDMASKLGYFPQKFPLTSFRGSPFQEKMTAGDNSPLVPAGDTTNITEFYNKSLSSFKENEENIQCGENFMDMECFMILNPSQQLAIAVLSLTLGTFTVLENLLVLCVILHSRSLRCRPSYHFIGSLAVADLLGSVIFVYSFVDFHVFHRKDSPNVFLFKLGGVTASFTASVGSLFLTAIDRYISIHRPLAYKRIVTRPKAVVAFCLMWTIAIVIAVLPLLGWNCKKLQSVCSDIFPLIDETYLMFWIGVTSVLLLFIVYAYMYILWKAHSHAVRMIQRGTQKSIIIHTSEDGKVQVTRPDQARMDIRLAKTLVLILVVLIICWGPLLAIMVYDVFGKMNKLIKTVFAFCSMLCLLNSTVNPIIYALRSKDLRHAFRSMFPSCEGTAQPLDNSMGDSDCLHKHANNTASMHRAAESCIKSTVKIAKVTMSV

[4] = target: T3, C-terminus (amino acids 418-472) of the CB1 cannabinoid receptor (Homo sapiens, UniProt P21554); test: Yeast two hybrid, domains of CRIP1b against the CB1 C-terminus; format: binding; settings: CRIP1b parts tested alone and in combination
T3 construct: expressed in transfected cells; host or cells: Y190 yeast cells
T3 sequence (P21554 418-472): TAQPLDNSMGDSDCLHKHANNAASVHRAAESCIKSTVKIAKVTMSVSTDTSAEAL
Description: A human brain cDNA library (Clontech) containing 5×10^6 independent clones with an average insert size of 1.5 kb fused to the GALA activation domain was cotransformed into Y 190 yeast cells with a bait plasmid consisting of the amino acids at positions 418-472 of the human cannabinoid receptor (CB1) fused to the GALA DNA binding domain. An overnight culture of Y190 cells was diluted to an OD600 of 0.08 (20 ml/reaction) and incubated at 30° C. until an OD600 of 0.2-0.4. The cells were washed in […] of water and resuspended in […] of 100 mM LiAc, 10 mM Tris-HCl, pH 7.5, and 1 mM EDTA (LiAc/TE). Single stranded herring testis DNA (200 μg), 20 μg of bait plasmid, 20 μg of carrier plasmid, and 1.2 ml of 40% polyethyleneglycol/LiAc/TE were added to the cells, followed by incubation at 30° C. for 30 minutes at 225 rpm. […] After incubation of the plates at 30° C. for 3-5 days, β-galactosidase activity of the colonies was assessed by lifting colonies onto filters, lysing the colonies by freezing in liquid nitrogen, and exposing the filters to 20 mg/ml X-gal in phospate-containing buffer.
To determine which domains of CRIP1b interact with the C-terminus (amino acids 418-472) of the CB1 cannabinoid receptor, yeast two hybrid experiments were performed. […] When each exon was tested alone, no interaction was detected (FIGS. 5A, 5C, and 5E). […]

[5] = target: T4, amino acids at positions 418-472 of the human cannabinoid receptor (CB1) fused to the GALA DNA binding domain (human, UniProt P04386 1-147; P21554 418-472); test: yeast two-hybrid, beta-galactosidase colour
T4 construct: Yeast two-hybrid bait in Y190 cells; also called bait plasmid

[6] = target: T5, GST alone coupled to Glutathione Sepharose-4B (UniProt P08515 1-218 = GST); test: affinity chromatography on Glutathione Sepharose-4B, SDS-PAGE and S-tag Western blot
T5 construct: the lane descriptions speak of glutathione Sepharose only; also called GST column; glutathione sepharose only column
T5 sequence (P08515 whole entry): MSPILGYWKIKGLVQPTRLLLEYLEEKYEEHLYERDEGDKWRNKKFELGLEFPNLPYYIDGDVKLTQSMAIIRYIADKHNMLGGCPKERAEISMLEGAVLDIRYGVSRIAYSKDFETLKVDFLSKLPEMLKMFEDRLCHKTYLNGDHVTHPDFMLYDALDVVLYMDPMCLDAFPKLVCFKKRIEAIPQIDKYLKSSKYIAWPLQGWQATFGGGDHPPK

[7] = target: T6, C-terminal tail of CB1 (amino acids 464-473 of rat CB1) (Rattus norvegicus, UniProt P20272); test: Yeast two-hybrid, CB1 receptor interaction site with CRIP1b; format: binding
T6 construct: C-terminal tail of CB1 (amino acids 464-473 of rat CB1); expressed in transfected cells; host or cells: yeast (strain not restated for this experiment)
Source text: The yeast two-hybrid technique was used to determine the CB1 receptor interaction site with CRIP1b. The C-terminus of the CB1 receptor contains separate domains critical for desensitization and internalization (Hsieh et al., 1999; Jin et al., 1999).

[8] = target: T7, GST-CB1 (418-472) (Homo sapiens, UniProt P21554); test: In vitro pull-down assay (GST affinity chromatography) of bacterially expressed proteins; format: binding
T7 construct: encoding amino acids at position 418-472 of the CB1 receptor into the pGEX-4T-1 expression vector; made in house; host or cells: bacteria; BL21(DE3) E. coli is stated for CRIP1b only
T7 sequence (P21554 418-472): as the sequence (P21554 418-472) above
Description: To confirm the interaction between the CB1 cannabinoid receptor and the interacting protein CRIP1b, in vitro pull-down assays of bacterially expressed proteins were performed. A GST fusion peptide was created between GST and a peptide of the CB1 receptor by cloning the polynucleotide sequence encoding amino acids at position 418-472 of the CB1 receptor into the pGEX-4T-1 expression vector. This GST fusion peptide was expressed and purified using standard protocols. GST alone and purified GST/CB1 fusion peptide were coupled to a first and second Glutathione Sepharose-4B column, respectively, as per standard protocols (Smith and Johnson, 1988, Gene, 67:31-40).
Polymerase chain reaction (PCR) was used to amplify the amino acids at positions 34-128 of CRIP1b in the pCT2 shuttle vector with EcoRI and XhoI restriction endonuclease sites. The PCR product was inserted in-frame into a pET30C expression plasmid harboring an S-tag (Novagen, Wis.). The resulting plasmid was transformed into BL21(DE3) E. coli cells, and these cells were induced to express CRIP1b by the introduction of isopropyl β-D-thiogalactopyranoside.
The bacteria were lysed in a buffer containing 50 mM Tris-Cl (pH 8.0), 1 mM EDTA, 100 mM NaCl, phenylmethylsulfonylfluoride (PMSF) (8 μl of 50 mM PMSF per gram of bacterial pellet). […]

rat CRIP1a (from UniProt Q5M7A7 1-164) gave a Ca^2+ current facilitation ratio [1] of 1.26.

B1: CRIP1a: CB1 receptor interacting protein 1a cloned from rat brain cDNA, 164 amino acids, SEQ ID NO:7 (protein, listed as Rattus sp.)
chain: MGDLPGIVRLSIALRIQPNDGPVFFKVDGQRFGQNRTIKLLTGSSYKVEVKIKPTTLQVENISIGGVLVPLELKCKEPDGERVVYTGIYDTEGVAPTKSGERQPIQITMPFTDIGTFETVWQVKFYNYHKRDHCQWGSPFSVIEYECKPNETRSLMWVNKESFL
For B1, the “Ca2+ current facilitation ratio” value ([2]; SCG neurons expressing CB1 receptors co-expressed with CRIP1a, 1.46±0.08 with CB1 alone) was 1.26±0.03, the “effect on agonist-induced (WIN55,212-2) inhibition of the Ca2+ current” value ([2]; SCG neurons expressing both CB1 and CRIP1a) was “had no effect on the agonist-induced inhibition of the Ca^2+ current” and the “effect on SR141716-induced increase of Ca2+ current (constitutive activity of CB1)” value ([2]; co-expression of CRIP1a with CB1 receptors in SCG neurons) was “significantly inhibited the effect of SR141716”. For the same molecule, the “effect on SR141716-induced increase of Ca2+ current” value ([2]; expression of CRIP1a alone, without CB1) was “had no effect” and the “effect on SR141716-induced increase of Ca2+ current” value [3] was “did not significantly inhibit effect of SR141716”.

B2: CRIP1b exon 1 and exon 2: Exon 1 (amino acids 34-60 of SEQ ID NO:2) and exon 2 (amino acids 61-110) in combination (protein, listed as Homo sapiens)
chain: QNRTIKLLTGSSYKVEVKIKPSTLQVENISIGGVLVPLELKSKEPDGDRVVYTGTYDTEGVTPTKSGERQPIQITMP
With B2 the “interaction in yeast two hybrid” value [4] was “positive interaction”.

B3: CRIP1b exon 2 (amino acids 61-110 of SEQ ID NO:2) (other, not shown: large carriers)
chain: NISIGGVLVPLELKSKEPDGDRVVYTGTYDTEGVTPTKSGERQPIQITMP
notes: Yeast two-hybrid construct
B3: no binding [5].

B4: S-tagged CRIP1b (amino acids at positions 34-128) expressed from pET30C in BL21(DE3) E. coli (other)
chain: QNRTIKLLTGSSYKVEVKIKPSTLQVENISIGGVLVPLELKSKEPDGDRVVYTGTYDTEGVTPTKSGERQPIQITMPECLEQRPQEISLTYECEE
notes: also called CB1-IP1; CRIP1b lysate; not shown: vector-encoded leader of pET30C with the S-tag
For B4, the “interaction in yeast two hybrid” value [4] was “enhanced” and the binding result [6] was “no binding”.

B5: CRIP1b: CB1 Receptor Interacting Protein 1b, 128 amino acid human polypeptide, SEQ ID NO:2; amino acids 34-128 used in pull-down (protein, listed as Homo sapiens)
chain: MGDLPGLVRLSIALRTQPNDGPVFYKVDGQRFGQNRTIKLLTGSSYKVEVKIKPSTLQVENISIGGVLVPLELKSKEPDGDRVVYTGTYDTEGVTPTKSGERQPIQITMPECLEQRPQEISLTYECEE
For B5, the “interaction in yeast two-hybrid with the most distal 9 amino acids of the CB1 receptor” value ([7]; minimal CB1 domain tested) was “strong interaction”, the “interaction in yeast two-hybrid with the CB1 desensitization and internalization domains” value ([7]; separate C-terminal domains of CB1) was “neither of these domains interacted strongly” and the “pull-down by GST-CB1 (418-472) on glutathione-Sepharose 4B” value ([8]; S-tagged CRIP1b (amino acids 34-128) bacterial lysate) was “pulled down”. For the same molecule, the “binding to glutathione Sepharose-4B matrix without CB1 fragment (control)” value ([8]; S-tagged CRIP1b bacterial lysate) was “did not bind to glutathione Sepharose-4B on its own”.
